Test results: patent US20260242419A1, “A CYCLIC PEPTIDE FOR TRAPPING INTERLEUKIN-1 BETA” (Merck Sharp & Dohme LLC, priority 2023, published 2026)
Starred links: 1 amine or outer side, 2 acyl side, 3 side chain; linkers in the order of their positions; H or OH if unused. Non-standard residues stand in square brackets, D forms with d. TyrEtNAc = (2S)-3-[4-(2-acetamidoethoxy)phenyl]-2-amino-propanoic acid, CC(=O)NCCOc1ccc(C[C@H](N[*:1])C(=O)[*:2])cc1; dPro(4R-(4-pyridylmethyl)) = O=C(O)[C@H]1C[C@@H](Cc2ccncc2)CN1; Trp(βS-Me,4-F) = C[C@@H](c1c[nH]c2cccc(F)c12)[C@H](N)C(=O)O; 3Aminoazetidine3carboxyl = O=C(C1(N[*:1])CN([*:3])C1)[*:2]; Bip(4'-COOH) = N[C@@H](Cc1ccc(-c2ccc(C(=O)O)cc2)cc1)C(=O)O; Ala(1-bicyclo(1.1.1)pentyl) = N[C@@H](CC12CC(C1)C2)C(=O)O; dPro(4R-Bzl(4-F)) = O=C(O)[C@H]1C[C@@H](Cc2ccc(F)cc2)CN1; Ala(piperazin-1-yl) = N[C@@H](CN1CCNCC1)C(=O)O; Ala(pyrimidin-5-yl) = N[C@@H](Cc1cncnc1)C(=O)O; Phe(4-COOH) = N[C@@H](Cc1ccc(C(=O)O)cc1)C(=O)O; Pro(cis-4-F) = O=C(O)[C@@H]1C[C@H](F)CN1; 4Pal = N[C@@H](Cc1ccncc1)C(=O)O; d(αMeS) = C[C@@](N)(CO)C(=O)O; αMeS = C[C@](N)(CO)C(=O)O; Dab = NCC[C@H](N)C(=O)O; Aib = CC(C)(N)C(=O)O

molecular target: Recombinant human IL-1β (BioLegend 579404) (human, UniProt P01584 117-269); assay: cell-based or functional assay

MRC5 IC50 | Binder
0.021 nM | cyclo([Bip(4'-COOH)][4Pal][Phe(4-COOH)]G[Pro(cis-4-F)][Trp(βS-Me,4-F)][d(αMeS)]EW[Aib][Ala(pyrimidin-5-yl)]Q[Dab]G[dPro(4R-Bzl(4-F))]) (SMILES C[C@@H](c1c[nH]c2cccc(F)c12)[C@@H]1NC(=O)[C@@H]2C[C@H](F)CN2C(=O)CNC(=O)[C@H](Cc2ccc(C(=O)O)cc2)NC(=O)[C@H](Cc2ccncc2)NC(=O)[C@H](Cc2ccc(-c3ccc(C(=O)O)cc3)cc2)NC(=O)[C@H]2C[C@@H](Cc3ccc(F)cc3)CN2C(=O)CNC(=O)[C@H](CCN)NC(=O)[C@H](CCC(N)=O)NC(=O)[C@H](Cc2cncnc2)NC(=O)C(C)(C)NC(=O)[C@H](Cc2c[nH]c3ccccc23)NC(=O)[C@H](CCC(=O)O)NC(=O)[C@@](C)(CO)NC1=O) [SEQ ID NO: 19]
0.027 nM | cyclo([Bip(4'-COOH)][4Pal][Phe(4-COOH)]G[Pro(cis-4-F)][Trp(βS-Me,4-F)][Aib]EW[αMeS][Ala(pyrimidin-5-yl)]Q[Dab]G[dPro(4R-Bzl(4-F))]) (SMILES C[C@@H](c1c[nH]c2cccc(F)c12)[C@@H]1NC(=O)[C@@H]2C[C@H](F)CN2C(=O)CNC(=O)[C@H](Cc2ccc(C(=O)O)cc2)NC(=O)[C@H](Cc2ccncc2)NC(=O)[C@H](Cc2ccc(-c3ccc(C(=O)O)cc3)cc2)NC(=O)[C@H]2C[C@@H](Cc3ccc(F)cc3)CN2C(=O)CNC(=O)[C@H](CCN)NC(=O)[C@H](CCC(N)=O)NC(=O)[C@H](Cc2cncnc2)NC(=O)[C@](C)(CO)NC(=O)[C@H](Cc2c[nH]c3ccccc23)NC(=O)[C@H](CCC(=O)O)NC(=O)C(C)(C)NC1=O) [SEQ ID NO: 18]
0.062 nM | cyclo([Bip(4'-COOH)][4Pal][Phe(4-COOH)]G[Pro(cis-4-F)][Trp(βS-Me,4-F)][3Aminoazetidine3carboxyl]EW[Aib][Ala(pyrimidin-5-yl)]Q[Dab]G[dPro(4R-Bzl(4-F))]) [SEQ ID NO: 20]
0.014 nM | cyclo([Bip(4'-COOH)][4Pal][Phe(4-COOH)]G[Pro(cis-4-F)][Trp(βS-Me,4-F)][Aib]EW[Aib][Ala(piperazin-1-yl)]Q[Dab]G[dPro(4R-Bzl(4-F))]) (SMILES C[C@@H](c1c[nH]c2cccc(F)c12)[C@@H]1NC(=O)[C@@H]2C[C@H](F)CN2C(=O)CNC(=O)[C@H](Cc2ccc(C(=O)O)cc2)NC(=O)[C@H](Cc2ccncc2)NC(=O)[C@H](Cc2ccc(-c3ccc(C(=O)O)cc3)cc2)NC(=O)[C@H]2C[C@@H](Cc3ccc(F)cc3)CN2C(=O)CNC(=O)[C@H](CCN)NC(=O)[C@H](CCC(N)=O)NC(=O)[C@H](CN2CCNCC2)NC(=O)C(C)(C)NC(=O)[C@H](Cc2c[nH]c3ccccc23)NC(=O)[C@H](CCC(=O)O)NC(=O)C(C)(C)NC1=O) [SEQ ID NO: 120]

More lines, now with the values behind:

Binder | MRC5 IC50
cyclo([Bip(4'-COOH)][4Pal][Phe(4-COOH)]G[Pro(cis-4-F)][Trp(βS-Me,4-F)][Aib]DW[Aib][Ala(pyrimidin-5-yl)]Q[Dab]G[dPro(4R-Bzl(4-F))]) (SMILES C[C@@H](c1c[nH]c2cccc(F)c12)[C@@H]1NC(=O)[C@@H]2C[C@H](F)CN2C(=O)CNC(=O)[C@H](Cc2ccc(C(=O)O)cc2)NC(=O)[C@H](Cc2ccncc2)NC(=O)[C@H](Cc2ccc(-c3ccc(C(=O)O)cc3)cc2)NC(=O)[C@H]2C[C@@H](Cc3ccc(F)cc3)CN2C(=O)CNC(=O)[C@H](CCN)NC(=O)[C@H](CCC(N)=O)NC(=O)[C@H](Cc2cncnc2)NC(=O)C(C)(C)NC(=O)[C@H](Cc2c[nH]c3ccccc23)NC(=O)[C@H](CC(=O)O)NC(=O)C(C)(C)NC1=O) [SEQ ID NO: 17] | 0.029 nM
cyclo([TyrEtNAc][4Pal][Phe(4-COOH)]G[Pro(cis-4-F)][Trp(βS-Me,4-F)][Aib]SW[Aib][Ala(pyrimidin-5-yl)]Q[Dab]G[dPro(4R-Bzl(4-F))]) [SEQ ID NO: 16] | 0.051 nM
cyclo([Bip(4'-COOH)][Ala(1-bicyclo(1.1.1)pentyl)][Phe(4-COOH)]G[Pro(cis-4-F)][Trp(βS-Me,4-F)][Aib]EW[Aib][Ala(pyrimidin-5-yl)]Q[Dab]G[dPro(4R-Bzl(4-F))]) (SMILES C[C@@H](c1c[nH]c2cccc(F)c12)[C@@H]1NC(=O)[C@@H]2C[C@H](F)CN2C(=O)CNC(=O)[C@H](Cc2ccc(C(=O)O)cc2)NC(=O)[C@H](CC23CC(C2)C3)NC(=O)[C@H](Cc2ccc(-c3ccc(C(=O)O)cc3)cc2)NC(=O)[C@H]2C[C@@H](Cc3ccc(F)cc3)CN2C(=O)CNC(=O)[C@H](CCN)NC(=O)[C@H](CCC(N)=O)NC(=O)[C@H](Cc2cncnc2)NC(=O)C(C)(C)NC(=O)[C@H](Cc2c[nH]c3ccccc23)NC(=O)[C@H](CCC(=O)O)NC(=O)C(C)(C)NC1=O) [SEQ ID NO: 13] | 0.022 nM
cyclo([Bip(4'-COOH)][4Pal][Phe(4-COOH)]G[Pro(cis-4-F)][Trp(βS-Me,4-F)][Aib]EW[Aib][4Pal]Q[Dab]G[dPro(4R-Bzl(4-F))]) (SMILES C[C@@H](c1c[nH]c2cccc(F)c12)[C@@H]1NC(=O)[C@@H]2C[C@H](F)CN2C(=O)CNC(=O)[C@H](Cc2ccc(C(=O)O)cc2)NC(=O)[C@H](Cc2ccncc2)NC(=O)[C@H](Cc2ccc(-c3ccc(C(=O)O)cc3)cc2)NC(=O)[C@H]2C[C@@H](Cc3ccc(F)cc3)CN2C(=O)CNC(=O)[C@H](CCN)NC(=O)[C@H](CCC(N)=O)NC(=O)[C@H](Cc2ccncc2)NC(=O)C(C)(C)NC(=O)[C@H](Cc2c[nH]c3ccccc23)NC(=O)[C@H](CCC(=O)O)NC(=O)C(C)(C)NC1=O) [SEQ ID NO: 2] | 0.023 nM
cyclo([Bip(4'-COOH)][4Pal][Phe(4-COOH)]G[Pro(cis-4-F)][Trp(βS-Me,4-F)][Aib]EW[Aib][4Pal]Q[Dab]G[dPro(4R-(4-pyridylmethyl))]) (SMILES C[C@@H](c1c[nH]c2cccc(F)c12)[C@@H]1NC(=O)[C@@H]2C[C@H](F)CN2C(=O)CNC(=O)[C@H](Cc2ccc(C(=O)O)cc2)NC(=O)[C@H](Cc2ccncc2)NC(=O)[C@H](Cc2ccc(-c3ccc(C(=O)O)cc3)cc2)NC(=O)[C@H]2C[C@@H](Cc3ccncc3)CN2C(=O)CNC(=O)[C@H](CCN)NC(=O)[C@H](CCC(N)=O)NC(=O)[C@H](Cc2ccncc2)NC(=O)C(C)(C)NC(=O)[C@H](Cc2c[nH]c3ccccc23)NC(=O)[C@H](CCC(=O)O)NC(=O)C(C)(C)NC1=O) [SEQ ID NO: 15] | 0.035 nM
cyclo([Bip(4'-COOH)][4Pal][Phe(4-COOH)]G[Pro(cis-4-F)][Trp(βS-Me,4-F)][Aib]EW[Aib][Ala(pyrimidin-5-yl)]Q[Dab]G[dPro(4R-(4-pyridylmethyl))]) (SMILES C[C@@H](c1c[nH]c2cccc(F)c12)[C@@H]1NC(=O)[C@@H]2C[C@H](F)CN2C(=O)CNC(=O)[C@H](Cc2ccc(C(=O)O)cc2)NC(=O)[C@H](Cc2ccncc2)NC(=O)[C@H](Cc2ccc(-c3ccc(C(=O)O)cc3)cc2)NC(=O)[C@H]2C[C@@H](Cc3ccncc3)CN2C(=O)CNC(=O)[C@H](CCN)NC(=O)[C@H](CCC(N)=O)NC(=O)[C@H](Cc2cncnc2)NC(=O)C(C)(C)NC(=O)[C@H](Cc2c[nH]c3ccccc23)NC(=O)[C@H](CCC(=O)O)NC(=O)C(C)(C)NC1=O) [SEQ ID NO: 14] | 0.035 nM
